This is an account of results in patent US6399758B1, “Nucleic acids for reducing carbohydrate epitopes” (The Austin Research Institute, priority 1996, dated 2002).

Like-named read-outs stand apart in the source and are kept apart here.

For data set [1] the following is noted: Type I Galβ(1,3)GlcNAc; literature refs 34, 35; read-out: Km reported; cited from earlier work.
For data set [2] the following is noted: Type III Galβ(1,3)GalNAc; literature ref 34; read-out: Km reported; cited from earlier work.
For data set [3] the following is noted: Type II Galβ(1,4)GlcNAc; literature refs 34, 37; read-out: Km reported; cited from earlier work.
Data set [4] has as its system α(1,2)-fucosyltransferase. The data set is described as follows: α(1,2)-fucosyltransferase activity in lysates of transfected COS cells. It is filed as biochemical, pig. The settings on record: mock-transfected baseline 1.1. As for the experimental part: (§1) Cells were washed twice with phosphate buffered saline and lysed in either 1% Triton X100/100 mM Tris pH7.0 or 1% Triton X100/100 mM sodium cacodylate pH 6.5/25 mM MnCl2 at 4° C. for 30 min, lysates centrifuged and the supernatant collected and stored at −70° C. Protein concentration was determined by the Bradford test, using bovine serum albumin as a standard; 5-20 μg of cell extract was used per transferase assay. The assay for α-1,2 fucosyltransferase involved mixing cell extracts and acceptor (75 mM pheny-β-Dgalactoside (Sigma)) in 50 μl 50 mM MOPS (3-[N-Morpholino]propanesulphonic acid) pH 6.5; 20 mM MnCl2; 5 mM ATP; 3 μM GDP[^14C]-Fuc (specific activity 287 mCi/mmol, Amersham International plc, Amersham, UK) and incubation for 2 h at 37° C. The reaction was terminated by the addition of ethanol, and the incorporated ^14C-Fuc determined by liquid scintillation counting after separation in Sep-Pak C18 cartridges (Waters-Millipore, Millford, Mass.). In all cases the parallel reactions were performed in the absence of added acceptor molecules, to allow for the calculation of specific incorporation.
Cell lysates prepared from COS cells transfected with pFUT2 and pFUT1 were assayed for α(1,2)-fucosyltransferase activity. […] The enzyme activity measured in these lysates reflects the expression of H substance on the cell surface as shown in Example 2.

Data set [5] can be described thus: Enzyme kinetics, apparent Km, Type III substrate. It is filed as biochemical. The settings on record: Type III Galβ(1,3)GalNAc; lysates of transfected COS cells. The procedure: as §1
(§2) Cell lysates prepared from COS cells transfected in the manner described in Example 1 with pFUT2 (pig Se), pFUT1 (pig H transferase), or with vector alone were assayed for α(1,2)-fucosyltransferase activity, and the kinetic values were calculated. […]

Data set [6] is described as follows: Enzyme kinetics, apparent Km, Type I substrate. The data set is classed as biochemical. The following applies: Type I Galβ(1,3)GlcNAc; lysates of transfected COS cells. As for the experimental part: as §1, §2
Data set [7] is described as follows: Enzyme kinetics, apparent Km, Type IV substrate. The following applies: Type IV Galβ(1,4)Gal; lysates of transfected COS cells. It is filed as biochemical. The procedure: as §1, §2
Data set [8] is described as follows: Enzyme kinetics, apparent Km, Type II substrate. The following applies: Type II Galβ(1,4)GlcNAc; lysates of transfected COS cells. The data set is classed as biochemical. As for the experimental part: as §1, §2
The nature of data set [9]: Enzyme kinetics, apparent Km, lactose. It is filed as biochemical. The following applies: Lactose Galβ(1,4)Glc; lysates of transfected COS cells. The procedure:
as §1, §2

Broadly, the Km is the substrate concentration at which the rate is half of its maximum.

B1: rabbit FUT1: rabbit α(1,2)-fucosyltransferase FUT1, literature homologue (protein, UniProt Q10979 1-373, looked up)
Galactoside …: MWPPSRRQLCLAFLLVCALSAFSFLLHLHQDLFRNGLALSLPCLERQPVPAPVAIVCLPVTSPASNASSCAGRPAAPSGIWTIHPDGRFGNQMGQYATLLALAQLNGRRAFILPAMHAALAPVFRITLPVLAPEVNRRTSWKQLLLHDWMSEEYSRLEDPFLKFTGFPCSWTFFHHVREQIRREFTLHDHLREEAQRLLGKLRLGRTGARPRTFVGVHVRRGDYLQVMPQRWKGVVGDRAYLQQAMDWFRARHEAPIFVVTSNGMKWCWENIDASRGDVVFAGNGLESSPAKDFALLTQCNHTVMTIGTFGFWAAYLAGGDTVYLANFTLPDSEFLKIFKPEAAFLPEWVGINADLSPVRTLSGSWRPWRFLG
Consider B1, for which the Km in [1] was 3.1 mM; in data set [2], 5.8 mM; in data set [3] it was 4.2 mM.

B2: rabbit FUT2: rabbit α(1,2)-fucosyltransferase FUT2, literature homologue (protein, UniProt Q10983 1-354, looked up)
Galactoside …: MRFAPDYVLCPPTATRRLRATHPSVSTIYFLFTIFVVSTVFHCHQRLALVPAPWAYSARVVVVPGHLPREGMWTINAMGRLGNQMGEYATLYALAKENGRPAYIPAQMHSTLAPIFRISLPVLHSSTASRVPWQNYHLNDWMEERYRHIPVPYVRLTGYPCSWTFYHHLRHEILREFTLHDHVREEAQAFLRGLRVNGSRPSTFVGVHVRRGDYVRVMPQVWKGVVADRGYLEQALDWFRAPTAPPVFVVTSNGMAWCRENIDASRGDVVFAGNGLEGSPAKDFALLTQCNHTVMTIGTFGFWAAYLTGGDTVYLANYTAPDSPFHLVFKPEAAFLPEWVGITANMGRALWSGL
Regarding B2, the Km was 1.5 mM in data set [1], 1 mM in [2] and 6.7 mM in data set [3].

B3: human FUT2: human α(1,2)-fucosyltransferase FUT2 (secretor), literature homologue (protein, UniProt Q10981 1-343, looked up)
Galactoside …: MLVVQMPFSFPMAHFILFVFTVSTIFHVQQRLAKIQAMWELPVQIPVLASTSKALGPSQLRGMWTINAIGRLGNQMGEYATLYALAKMNGRPAFIPAQMHSTLAPIFRITLPVLHSATASRIPWQNYHLNDWMEEEYRHIPGEYVRFTGYPCSWTFYHHLRQEILQEFTLHDHVREEAQKFLRGLQVNGSRPGTFVGVHVRRGDYVHVMPKVWKGVVADRRYLQQALDWFRARYSSLIFVVTSNGMAWCRENIDTSHGDVVFAGDGIEGSPAKDFALLTQCNHTIMTIGTFGIWAAYLTGGDTIYLANYTLPDSPFLKIFKPEAAFLPEWTGIAADLSPLLKH
Turning to B3, the Michaelis constant (Km) in data set [1] is 1 mM; in data set [3], 5.7 mM.

B4: pFUT1: pig H type α(1,2)-fucosyltransferase expressed in COS cells; label also used for the plasmid encoding it (protein, UniProt Q29043 1-365, looked up)
Galactoside …: MWVPSRRHLCLTFLLVCVLAAIFFLNVYQDLFYSGLDLLALCPDHNVVSSPVAIFCLAGTPVHPNASDSCPKHPASLSGTWTIYPDGRFGNQMGQYATLLALAQLNGRQAFIQPAMHAVLAPVFRITLPVLAPEVDRHAPWRELELHDWMSEDYAHLKEPWLKLTGFPCSWTFFHHLREQIRSEFTLHDHLRQEAQGVLSQFRLPRTGDRPSTFVGVHVRRGDYLRVMPKRWKGVVGDGAYLQQAMDWFRARYEAPVFVVTSNGMEWCRKNIDTSRGDVIFAGDGREAAPARDFALLVQCNHTIMTIGTFGFWAAYLAGGDTIYLANFTLPTSSFLKIFKPEAAFLPEWVGINADLSPLQMLAGP
B4: the “α(1,2)-fucosyltransferase activity” value in data set [4] came out at 140.0 nmol/h/mg. The Km was 14 mM in data set [5]; 6 mM in [6]; 4.2 mM in [7]; 3.7 mM in data set [8]; 1.9 mM in data set [9].

B5: human FUT1: human α(1,2)-fucosyltransferase FUT1 (H transferase), literature homologue (protein, UniProt P19526 1-365, looked up)
Galactoside …: MWLRSHRQLCLAFLLVCVLSVIFFLHIHQDSFPHGLGLSILCPDRRLVTPPVAIFCLPGTAMGPNASSSCPQHPASLSGTWTVYPNGRFGNQMGQYATLLALAQLNGRRAFILPAMHAALAPVFRITLPVLAPEVDSRTPWRELQLHDWMSEEYADLRDPFLKLSGFPCSWTFFHHLREQIRREFTLHDHLREEAQSVLGQLRLGRTGDRPRTFVGVHVRRGDYLQVMPQRWKGVVGDSAYLRQAMDWFRARHEAPVFVVTSNGMEWCKENIDTSQGDVTFAGDGQEATPWKDFALLTQCNHTIMTIGTFGFWAAYLAGGDTVYLANFTLPDSEFLKIFKPEAAFLPEWVGINADLSPLWTLAKP
As for B5, the Km in data set [1] was 2 mM; in data set [3], 1.9 mM.

B6: pFUT2: pig Secretor type α(1,2)-fucosyltransferase expressed in COS cells; label also used for the plasmid encoding it (protein, UniProt Q10982 1-340, looked up)
Galactoside …: MLSMQASFFFPTGPFILFVFTASTIFHLQQRMVKIQPTWELQMVTQVTTESPSSPQLKGMWTINAIGRLGNQMGEYATLYALARMNGRPAFIPPEMHSTLAPIFRITLPVLHASTARRIPWQNYHLNDWMEERYRHIPGEYVRLTGYPCSWTFYHHLRTEILREFTLHNHVREEAQDFLRGLRVNGSRPSTYVGVHVRRGDYVHVMPNVWKGVVADRRYLEQALDWFRARYRSPVFVVSSNGMAWCRENINASRGDVVFAGNGIEGSPAKDFALLTQCNHTVMTIGTFGIWAAYLAGGETIYLANYTLPDSPFLKLFKPEAAFLPEWIGIEADLSPLLKH
Turning to B6, the “α(1,2)-fucosyltransferase activity” value in [4] came out at 151.1 nmol/h/mg. Besides, the Km in data set [5] stood at 0.2 mM; in [6] it was 1.3 mM; in data set [7], 1.5 mM; in [8], 4.4 mM; in [9], 7.4 mM.
